28 sequences from the domain aggregation screens of Martell et al. (2025) can be followed below.

This series in a line: soluble fraction after stress (log2 fold change); higher = more stays soluble; pooled small domains, quantitative proteomics. The note with it: stress: 75 degC.
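Further: 20 min heating vs room temperature control held 20 min.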

With “HMKAFTKKELQDLVLNIFRASPTTNYNYKQLYKLIRGKDPEIKTLIIAVLLGLEKNGSILQMRPGKYKFS”, the “soluble fraction (log2)” value stood at 0.97.

In the case of “HMKALDTVLSEIPGLGPVRIKQLLKVFGSVDAIRKASLQDLQQIEGIGPKLAQTIYEYFHQP”, the “soluble fraction (log2)” value turned out to be 0.898.

For “HMKALYNLDYEKPLSGSYYTETTARAAVPTDIRKLGLIITYKTDATTNITEQFVGSSISAWTTSGNWKSLG”, the “soluble fraction (log2)” value was -1.77.

As to “HMKAPPLTDREKEILRWVAAGLQNKEIAHKLGISLATVRNHIHNILEKLDVHSKLEAVSLAFRQGWVS”, the “soluble fraction (log2)” value was -0.356.

As for “HMKASEMKKGQTIKIDGVLYVIVDFQHVKLSKGGAVYQTKLRNLAAGGIRDIRIRAEEVLEDA”, the “soluble fraction (log2)” value was -2.97.

“HMKDITPASEDQLKAITDLMLKVNGEWSDAFFTFISKKFNHQISSPEQLTTFEANTIIDMLRKKAEG”: the “soluble fraction (log2)” value is -0.601.

Consider “HMKDLDSLSQEAKSVYAVFSDKPIHIDDIKRKTGLDFSKLFKAVTELELAELISSGEGKMYSL”, for which the “soluble fraction (log2)” value is -0.0075.

In the case of “HMKDLTIRQQQFLNYIKDHLSLTGFPPTRSDIANEMGFKSPNAAEDHLRALARKGAIEIVPGTSRGIRLP”, the “soluble fraction (log2)” value was -0.419.

As for “HMKDMKISTKNLLQELAKNYPDQTSFRKNVIETTARAMGYTGKDFYPLLTTDNRVKIGTYDLATFLRSI”, the “soluble fraction (log2)” value was -0.969.

For “HMKDNPNETFERIAGKITRTLRSGPVRIQQLDLLFSESAGKVVDVLRAMAENGEVLIKDDTIQLNGNN”, the “soluble fraction (log2)” value was -0.0108.

Turning to “HMKDTFHNLSEEKRERIIRAALGEFAASGYEKATLDGVVQAAGISKGGLYEYISSKEDLFRYLLEYSYD”, the “soluble fraction (log2)” value was -1.82.

With “HMKDTNENLMKMLALLIHAAKIDENYSDEEKELIVNFAEMSSKENLNREQILSIIKSAEEYE”, the “soluble fraction (log2)” value is -1.24.

As to “HMKEADVRKNEILDAAGILFSEKGYDNTSVTDIMNAVGFAKGTLYHHFKSKEDIMDALIKRQTD”, the “soluble fraction (log2)” value was -0.125.

For the sequence “HMKEAISIYPNPVKDILTIRGMDETSGVSFKLYDVTGNLLLESTHSELDMSGLNRGVYFLDIAGDVRKVVK”, the “soluble fraction (log2)” value is -0.342.

For “HMKEEDLPREYTDILGNSVHERLNIMIHDIIEHSQDKPEVAMSPEREEAMHGLRRWMFDHVYH”, the “soluble fraction (log2)” value was -0.168.

As for “HMKEEVEILGGKATIYTNDYGVWQFRLWLTTDNKYVRKSLRTKVKDYAITEGEKLYIQIRSDIEKGIKYY”, the “soluble fraction (log2)” value was -1.13.

Take “HMKEEVSVPDIKGMTYEEAEAKLAKYDLEIEKGETVKASEQYEEGQISSQEPEAGSKVKEGSTIVVDVVE”: the “soluble fraction (log2)” value worked out at 0.185.

Regarding “HMKEFSFNGGKVIMNYEADRIQIKHDSRPNQEVITLMKRNGFKWSPTNQAWQRQITGNAIYVTKNLLKS”, the “soluble fraction (log2)” value was -2.33.

Turning to “HMKEGGGYGQLRLKEAAIQHAFDLQNALQFIAERGYQAHENTTLKEAANALNLKPIELLELLKSSQ”, the “soluble fraction (log2)” value was 0.0627.

“HMKEIDVPNVVGASENAARKLLESYGFQVEVQWENGERVDNAVVKSYSPNGSAKSGSTVTIVLGT”: the “soluble fraction (log2)” value amounted to 0.0998.

For the sequence “HMKEINFTIEESAKGRLDKVIAENVADLTRSQVQSLIKKGQILVNDAPTTNRYQVKPNDQVIIKLPDPV”, the “soluble fraction (log2)” value worked out at 0.396.

For “HMKEKLGEFENVFLSVDELQKLKSKLGAETESYIERLSNYIASSGKKYKSHYATILSWTQKDTK”, the “soluble fraction (log2)” value was -0.88.

Take “HMKELASKYEISEYMKFLIENLDKSNFFYPIEKRESMINNIFSIYSKADLSKKELNMLWGMLKKLR”: the “soluble fraction (log2)” value is -2.31.

Take “HMKELTELIEKIKLRRLELGLSYQELSDLTGINKSTLQRYETGFIKKVPINQVQIIAKALNVTPGYLMG”: the “soluble fraction (log2)” value is -0.72.

With “HMKEMTAKQIDMFSDKLSKLESFQSHYIADAGVSVTEYKQAIAAKLQDQFYVEAWGKYLADVGFT”, the “soluble fraction (log2)” value was -0.393.

As to “HMKEPIYQTILSALILELNTNHFRKNDPFYSESELRKKYQVSSTTVVRVLNMLADQGYIYRIQGKGSFVSK”, the “soluble fraction (log2)” value was -2.62.

Regarding “HMKESFAQLFSLLTPTEQKVAALISQGFSNKDIAAKMFISLSTVKTHTNHIFAKMGVANRNALVAKVNN”, the “soluble fraction (log2)” value was -1.46.

For the sequence “HMKESRFDYDAVLLYSDKDSITEVKDAVQHLTKEFGSVFTTKKIPEKATFGKLFRIEKGEVNIIEDN”, the “soluble fraction (log2)” value turned out to be 0.367.
